# Data from PMC4678481, “Structural insights into the mechanism defining substrate affinity in Arabidopsis thaliana dUTPase: the role of tryptophan 93 in ligand orientation” (BMC Research Notes, 2015).
# Substrate: O=c1ccn([C@H]2C[C@H](O)[C@@H](COP(=O)(O)OP(=O)(O)OP(=O)(O)O)O2)c(=O)[nH]1
# Assay: purified protein
# Assay type: biochemical, Arabidopsis thaliana
# Details: pH 7.6, 25 °C, 5 mM MgCl2, 100 mM KCl, 0.25 mM bicine, 50 nM enzyme
protein,measurement,value
"Arabidopsis dUTPase (Arabidopsis thaliana) (protein, full length, 166 residues; His tag removed by thrombin, extra Gly-Ser-His at N-terminus; expressed in E. coli JM103 (DE3); homotrimer) MACVNEPSPKLQKLDRNGIHGDSSPSPFFKVKKLSEKAVIPTRGSPLSAGYDLSSAVDSKVPARGKALIPTDLSIAVPEGTYARIAPRSGLAWKHSIDVGAGVIDADYRGPVGVILFNHSDADFEVKFGDRIAQLIIEKIVTPDVVEVDDLDETVRGDGGFGSTGV",Km,0.4 ± 0.1 µM
